In patent US6642007 (Pfizer, dated 2003):
No end group written: not given here. *: point of attachment. Biotin = O=C1N[C@H]2[C@H](CS[C@H]2CCCCC(=O)*)N1

T1: biotinylated peptide Bt-AEGPPGPQG (SEQ ID NO: 14)
T1 construct: also called biotinylated peptide 040; peptide 040
T1 peptide: Biotin-AEGPPGPQG

T2: biotinylated peptide of SEQ ID NO: 19
T2 construct: Captured on a streptavidin biosensor chip; also called biotinylated peptide 054
T2 peptide: Biotin-GEPGDDGPS

T3: biotinylated peptide 225 (SEQ ID NO: 64) (biotinylated (position not given))
T3 construct: Collagen-related peptide fragment on streptavidin magnetic beads
T3 peptide: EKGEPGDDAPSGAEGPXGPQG

B1: monoclonal antibody 9A4 (antibody, V domains shown)
VH: QIQLVQSGPELKKPGETVKISCKASGYTFTDYSIHWVKQAPGKGLKWMGWINTETGEPTYADDFKGRFAFSLETSASTAYLQINNLKNEDTATYFCARGGSLDYWGQGTTLTVSS
VL: QIVLTQSPVFMSASPGEKVTMTCSASSSVSYMYWYQQKPGSSPRLLIHATSNLASGVPVRFSGGGSGTSYSLTISRMEAEDAATYYCQQWRSYTRTFGGGTKLEIIR
notes: also called mAb 9A4; 9A4 IgG
B2: monoclonal antibody 5109 (antibody, V domains shown)
VH: EVQLVESGGGSVQPGGSLKLSCAASGFTFNTYGMSWVRQTPDKRLEWVATINSNGGLTFYADSVKGRFTISRDNAKNTLYLQMNRLKSGDSGMYYCVRGYSNYARWGQGALVTVSA
VL: DVVMTQTPLTLSVTIGQSASISCKSSQSLLGSDGLTYLIWLLQRPGQSPKRLIFLVSELDSGVPDRFTGSGSGTDFTLKISRVEAEDLGVYYCCQGTHFPHTFGAGTKLELK
B3: 9A4 scFv (VL-linker-VH-FLAG tag) from p9A4IF-5 (scFv)
scFv: QIVLTQSPVFMSASPGEKVTMTCSASSSVSYMYWYQQKPGSSPRLLIHATSNLASGVPVRFSGGGSGTSYSLTISRMEAEDAATYYCQQWRSYTRTFGGGTKLEIILSADDAKKDAAKKDDAKKDDAKKDLEIQLVQSGPELKKPGETVKISCKASGYTFTDYSIHWVKQAPGKGLKWMGWINTETGEPTYADDFKGRFAFSLETSASTAYLQINNLKNEDTATYFCARGGSLDYWGQGTTLTVSSASDYKDDDDK
notes: Monomer purified from E. coli; also called 9A4IF-5 scFv; p9A4lF-5
B4: 9A4 scFv (VH-linker-VL-HIS-MYC tags) from p9A4ICAT7-1 (scFv)
scFv: QIQLVQSGPELKKPGETVKISCKASGYTFTDYSIHWVKQAPGKGLKWMGWINTETGEPTYADDFKGRFAFSLETSASTAYLQINNLKNEDTATYFCARGGSLDYWGQGTTLTVSSGGGGSGGGGSGGGGSQIVLTQSPVFMSASPGEKVTMTCSASSSVSYMYWYQQKPGSSPRLLIHATSNLASGVPVRFSGGGSGTSYSLTISRMEAEDAATYYCQQWRSYTRTFGGGTKLEIIAAAHHHHHHGAAEQKLISEEDLNGAA
notes: Monomer purified from E. coli TG1; also called 9A4ICAT7-1 scFv; p9A4lCAT7-1
B5: 9A4 scFv CDR3 VH mutant clone 15A (scFv)
scFv: QIQLVQSGPELKKPGETVKISCKASGYTFTDYSIHWVKQAPGKGLKWMGWINTETGEPTYADDFKGRFAFSLETSASTAYLQINNLKNEDTATYFCARGGRLDYWGQGTTLTVSSGGGGSGGGGSGGGGSQIVLTQSPVFMSASPGEKVTMTCSASSSVSYMYWYQQKPGSSPRLLIHATSNLASGVPVRFSGGGSGTSYSLTISRMEAEDAATYYCQQWRSYTRTFGGGTKLEIIAAAHHHHHHGAAEQKLISEEDLNGAA
notes: Derived from p9A4ICAT7-1
B6: 9A4 scFv CDR3 VH mutant clone 14B (scFv)
scFv: QIQLVQSGPELKKPGETVKISCKASGYTFTDYSIHWVKQAPGKGLKWMGWINTETGEPTYADDFKGRFAFSLETSASTAYLQINNLKNEDTATYFCARGGSLDHWGQGTTLTVSSGGGGSGGGGSGGGGSQIVLTQSPVFMSASPGEKVTMTCSASSSVSYMYWYQQKPGSSPRLLIHATSNLASGVPVRFSGGGSGTSYSLTISRMEAEDAATYYCQQWRSYTRTFGGGTKLEIIAAAHHHHHHGAAEQKLISEEDLNGAA
notes: Derived from p9A4ICAT7-1
B7: 9A4 scFv CDR3 VH mutant clone 20B (scFv)
scFv: QIQLVQSGPELKKPGETVKISCKASGYTFTDYSIHWVKQAPGKGLKWMGWINTETGEPTYADDFKGRFAFSLETSASTAYLQINNLKNEDTATYFCGRGGNLDHCGQGTTLTVSSGGGGSGGGGSGGGGSQIVLTQSPVFMSASPGEKVTMTCSASSSVSYMYWYQQKPGSSPRLLIHATSNLASGVPVRFSGGGSGTSYSLTISRMEAEDAATYYCQQWRSYTRTFGGGTKLEIIAAAHHHHHHGAAEQKLISEEDLNGAA
notes: Derived from p9A4ICAT7-1
B8: 9A4 scFv CDR3 VH mutant clone 18E (scFv)
scFv: QIQLVQSGPELKKPGETVKISCKASGYTFTDYSIHWVKQAPGKGLKWMGWINTETGEPTYADDFKGRFAFSLETSASTAYLQINNLKNEDTATYFCARGGSLDVWGQGTTLTVSSGGGGSGGGGSGGGGSQIVLTQSPVFMSASPGEKVTMTCSASSSVSYMYWYQQKPGSSPRLLIHATSNLASGVPVRFSGGGSGTSYSLTISRMEAEDAATYYCQQWRSYTRTFGGGTKLEIIAAAHHHHHHGAAEQKLISEEDLNGAA
notes: Derived from p9A4ICAT7-1
B9: 9A4 scFv CDR3 VH mutant clone 8D (scFv)
scFv: QIQLVQSGPELKKPGETVKISCKASGYTFTDYSIHWVKQAPGKGLKWMGWINTETGEPTYADDFKGRFAFSLETSASTAYLQINNLKNEDTATYFCARGGSLDNWGQGTTLTVSSGGGGSGGGGSGGGGSQIVLTQSPVFMSASPGEKVTMTCSASSSVSYMYWYQQKPGSSPRLLIHATSNLASGVPVRFSGGGSGTSYSLTISRMEAEDAATYYCQQWRSYTRTFGGGTKLEIIAAAHHHHHHGAAEQKLISEEDLNGAA
notes: Derived from p9A4ICAT7-1
B10: 9A4 scFv CDR3 VH mutant clone 24A (scFv)
scFv: QIQLVQSGPELKKPGETVKISCKASGYTFTDYSIHWVKQAPGKGLKWMGWINTETGEPTYADDFKGRFAFSLETSASTAYLQINNLKNEDTATYFCGRGGSLEYWGQGTTLTVSSGGGGSGGGGSGGGGSQIVLTQSPVFMSASPGEKVTMTCSASSSVSYMYWYQQKPGSSPRLLIHATSNLASGVPVRFSGGGSGTSYSLTISRMEAEDAATYYCQQWRSYTRTFGGGTKLEIIAAAHHHHHHGAAEQKLISEEDLNGAA
notes: Derived from p9A4ICAT7-1
B11: 9A4 scFv CDR3 VH mutant clone 38B (scFv)
scFv: QIQLVQSGPELKKPGETVKISCKASGYTFTDYSIHWVKQAPGKGLKWMGWINTETGEPTYADDFKGRFAFSLETSASTAYLQINNLKNEDTATYFCGRGGSLDSCGQGTTLTVSSGGGGSGGGGSGGGGSQIVLTQSPVFMSASPGEKVTMTCSASSSVSYMYWYQQKPGSSPRLLIHATSNLASGVPVRFSGGGSGTSYSLTISRMEAEDAATYYCQQWRSYTRTFGGGTKLEIIAAAHHHHHHGAAEQKLISEEDLNGAA
notes: Derived from p9A4ICAT7-1
B12: 9A4 scFv CDR3 VH mutant clone 10C (scFv)
scFv: QIQLVQSGPELKKPGETVKISCKASGYTFTDYSIHWVKQAPGKGLKWMGWINTETGEPTYADDFKGRFAFSLETSASTAYLQINNLKNEDTATYFCGRGGSLDYCGQGTTLTVSSGGGGSGGGGSGGGGSQIVLTQSPVFMSASPGEKVTMTCSASSSVSYMYWYQQKPGSSPRLLIHATSNLASGVPVRFSGGGSGTSYSLTISRMEAEDAATYYCQQWRSYTRTFGGGTKLEIIAAAHHHHHHGAAEQKLISEEDLNGAA
notes: Derived from p9A4ICAT7-1
B13: 9A4 scFv CDR3 VH mutant clone 5C (scFv)
scFv: QIQLVQSGPELKKPGETVKISCKASGYTFTDYSIHWVKQAPGKGLKWMGWINTETGEPTYADDFKGRFAFSLETSASTAYLQINNLKNEDTATYFCARGGSLDSWGQGTTLTVSSGGGGSGGGGSGGGGSQIVLTQSPVFMSASPGEKVTMTCSASSSVSYMYWYQQKPGSSPRLLIHATSNLASGVPVRFSGGGSGTSYSLTISRMEAEDAATYYCQQWRSYTRTFGGGTKLEIIAAAHHHHHHGAAEQKLISEEDLNGAA
notes: Derived from p9A4ICAT7-1
B14: 9A4 scFv CDR3 VH mutant clone 13G (scFv)
scFv: QIQLVQSGPELKKPGETVKISCKASGYTFTDYSIHWVKQAPGKGLKWMGWINTETGEPTYADDFKGRFAFSLETSASTAYLQINNLKNEDTATYFCGRGGSLDNWGQGTTLTVSSGGGGSGGGGSGGGGSQIVLTQSPVFMSASPGEKVTMTCSASSSVSYMYWYQQKPGSSPRLLIHATSNLASGVPVRFSGGGSGTSYSLTISRMEAEDAATYYCQQWRSYTRTFGGGTKLEIIAAAHHHHHHGAAEQKLISEEDLNGAA
notes: Derived from p9A4ICAT7-1

Columns and labels:
[1] = target: T1, biotinylated peptide Bt-AEGPPGPQG (SEQ …); assay: BIAcore, biotinylated peptide SEQ ID NO: 14 on streptavidin chip
Description: Positive wells in the ELISA were subjected to a second round of selection on the BIAcore™ system. Wells were sought that produced antibodies having slow off rates on the BIAcore™ system as determined using BIAevaluation™ version 2.1 software (Pharmacia Biosensor, Piscataway, N.J.). Streptavidin (Pierce Chemical) at 100 μg/ml was conjugated using the Pharmacia Amine Coupling Kit (Pharmacia Biosensor) to carboxylated dextran-coated biosensor chips (Pharmacia Biosensor) at a pH 4.0 using a flow rate of 5 μl/minute for 35 minutes. Typically, 2000 RU was added. Peptide (100 ng/ml) biotinylated on residue of 1 of SEQ ID NO: 14 as set forth in the Sequence Listing, was passed over the streptavidin chip at a flow rate of 100 μl/minute for 10 seconds. Candidate supernatants containing antibody were passed over the chip (2 μl/minute for 30 seconds) and the amount of added antibody noted. The buffer was changed to HBS (HEPES buffered saline, Pharmacia Biosensor), and the dissociation rate noted for the next 80 seconds. The chip was cleaned with 0.1 N HCl for 30 seconds between each run to remove residual antibody and to clear any nonspecific binding. The off-rates were determined using BIAevaluation™ kinetic analysis software version 2.1. Clones with the slowest off rates were selected for further analysis. These clones included 9A4, 11F2, and 3H10.
Binding to antigen was evaluated on the BlAcore™ system for both the p9A4lCAT7-1 and p9A4lF-5 scFv purified gene products as follows. A streptavidin chip was loaded with biotinylated peptide of SEQ ID NO: 14 as given in Example 1 above.

[2] = target: T2, biotinylated peptide of SEQ ID NO: 19; assay: ELISA-positive hybridoma supernatant, BIAcore over biotinylated peptide SEQ ID NO: 19 on streptavidin chip
Description: Positive wells were subjected to a second round of selection on the BlAcore™ system for those which had antibodies giving the slowest off-rates. Streptavidin (Pierce Chemical) at 100 µg/ml was conjugated using the Pharmacia Amine Coupling Kit (Pharmacia Biosensor) to carboxylated dextran coated biosensor chips (Pharmacia Biosensor) at pH 4.0 using a flow rate of 5 µl/minute for 35 minutes. Typically, 2000 RU was added. Peptide (100 ng/ml), biotinylated on residue 1 of SEQ ID NO: 19 as set forth in the Sequence Listing, was passed over the streptavidin chip at a flow rate of 100 µl/minute for 10 seconds. Supernatants containing antibody were passed over the chip (2 µl/minute for 30 seconds) and the amount of added antibody noted. The buffer was changed to HBS (Pharmacia Biosensor), and the dissociation rate noted for the next 80 seconds. The chip was cleaned with 0.1 N HCl for 30 seconds between each run to remove antibody and to get rid of any nonspecific binding. The off-rates were determined using the BlAevaluation™ software version 2.1.

[3] = target: T3, biotinylated peptide 225 (SEQ ID NO: 64); assay: told in words beside the Origen result
[4] = target: T1, biotinylated peptide Bt-AEGPPGPQG (SEQ …); assay: BIAcore, scFv over biotinylated peptide SEQ ID NO: 14 on streptavidin chip, dissociation 280 s
Description: Off-rates for the scFv constructs were measured by analysis of dissociation data obtained on the BlAcore™ system (Pharmacia Biosensor) with BlAevaluation™ version 2.1 software. To obtain the data on the BlAcore™ system, streptavidin surfaces on the BlAcore™ chips were prepared as described previously in Example 1. Biotinylated peptide (SEQ ID NO: 14) was bound to the prepared streptavidin surfaces to RU densities ranging from about 2–11 RU's/surface. The lower level of derivatization would help avoid getting erroneous off-rates that could be obtained if mass transport was an issue. Purified scFv's were injected over these surfaces to allow binding of the constructs for 60 seconds. PBS buffer alone was then substituted and the dissociation of scFv was allowed to proceed for an additional 280 sec. Off-rates were calculated from these dissociation data.

Binder | koff [4] [s⁻¹] | also measured
B1 |  | Kd [1]: 120 nM; koff [1]: 0.0176 s⁻¹
B2 |  | binding result [2]: binds; binding result [3]: binds
B3 | 0.0048 | Kd [1]: 110 nM
B4 | 0.003 | koff [1]: 0.0012 s⁻¹
B5 | 0.0035 | 
B6 | 0.0027 | 
B7 | 0.0028 | 
B8 | 0.014 | 
B9 | 0.0104 | 
B10 | 0.0025 | 
B11 | 0.0026 | 
B12 | 0.0094 | 
B13 | 0.0025 | 
B14 | 0.0103 | 
